Experimental data as given in patent US20220356229A1 (published 2022).
Where a chain is given by its changes, count along the chain named.

B1: mAb 1135 (antibody, V domains shown)
VH: EVQLVESGGGLVQPGRSLRLSCAASGLTFEDYAMHWVRQVPGKGLEWVSGISWNSGTIGYADSVKGRFIISRDNAKNSLYLQMRSLRAEDTALYYCAKDVGFGELLYYAFDIWGQGTMVTVSS
VL: QSALTQPASVSGSPGQSITISCTGTSSDVGGYNYVSWYQQHPGKAPKLMIYDVSNRPSGVSNRFSGSKSGNTASLTISGLQAEDEADYYCSSYTSSSTVVFGGGTKLTVLG
B2: mAb 1037 (antibody, V domains shown)
VH: QITLKESGPTLVKPTQTLTLTCTFSGFSLSTSGVGVGWIRQPPGKALEWLALIYWDDDKRYSPSLKSRLTITKDTSKNQVVLTMTNMDPVDTATYYCAHHTITRINDYWGQGTLVTVSS
VL: QSALTQPASVSGSPGQSITISCTATSSDVGAYNYVSWYQQHPGKAPKLMIYDVSKRPSGVSNRFSGSKSGNTASLTISGLQAEDEADYYCSSYTSSSTVFGGGTKLTVLG
B3: mAb 923 (antibody, V domains shown)
VH: EVQLVESGGGVVRPGGSLRLSCAASGFIFDDYDMTWVRQAPGKGLEWVSGISWNGGNTGYADSVKGRFTISRDNAKNSLYLQMNSLRAEDTALYHCAVIMSPIPRYSGYDWAGGAFDIWGQGTMVTVSS
VL: SSELTQDPAVSVALGQTVRITCQGDSLRSYYASWYQQKPGQVPILVIYDKNNRPSGIPDRFSGSSSGNTASLTITGAQAEDEADYYCNSRDSSGNAVVFGGGTKLTVLG
B4: mAb 894 (antibody, V domains shown)
VH: QVQLVQSGAEVKKPGASVKVSCKVSGYTLPELSIHWVRQAPGKGLEWMGGFDPENAETIYTQKFQGRLTMTEDTSTDTAYMELSSLRSEDTAMYYCATSFVLMPAALGDYSYYYGMDVWGQGTTVTVSS
VL: not shown
B5: mAb 896 (antibody, V domains shown)
VH: EVQLVESGGGVVQPGGSLRLSCAASGFTFDDYAMHWVRQVPGKGLEWVSLISGDGGSTYYADSVKGRFTISRDNSKNSLYVQMNSLRTEDTALYYCVKDRGGSGWDLNHYYYGMDVWGQGTTVTVSS
VL: DIQLTQSPSFLSASVGDRVTVTCRASQGISSYLAWYQQKPGKAPKLLIYAAYTLQSGVPSRFSGSGSETEFTLTISSLQPEDFATYYCQQVKSYPLTFGGGTKVEIKR
B6: mAb 936 (antibody, V domains shown)
VH: EVQLVESGGGLVQPGRSLTLSCAGSGFTFDDYAMHWVRQAPGKGLEWVSGISWNSGSIGYADSVKGRFTISRDNAKNSLYLQMNSLRAEDTALYYCAKDVSYDSSGYYNNAFDIWGQGTMVTVSS
VL: B5 VL with V21I, Y52S, E68G, V91L, K92Y, L96V, G100Q, K103R, V104L
B7: mAb 1075 (antibody, V domains shown)
VH: QVQLVQSGAEVKKPGASVKVSCKVSGYTLIELSMHWVRQAPGKGLEWMGGFDPEDGETIYAQKFQGRVTMTEDTSTDTAYMELSSLRSEDTAVYYCATEWAYYGSGSYLGYWGQGTLVTVSS
VL: EIVMTQSPATLSVSPGERATLSCRASQSVSSNLAWFQQKPGQAPRLLIYGASTRVTVIPARFSGSGSGTEFTLTISSLQSEDFAVYYCQQYNNWPRTFGQGTKVEIKR
B8: mAb 1015 (antibody, V domains shown)
VH: EVQLVESGGGLVQPGGSLRLSCAASGFTFSSYWMHWVRQAPGKGLVWVSHINSDGSSTSYADSVKGRFTISRDNAKNTLYLQMNSLRAEDTAVYYCARGLRYFDLDVWGQGTTVTVSS
VL: QSVLTQPPSVSEAPRQRVTISCSGSSSNIGNNAVNWYQQLPGKAPKLLIFYDDLLPSGVSDRFSGSKSGTSASLAISGLQSEDEADYYCAAWDDSLNGGVFGGGTKLTVLG
B9: mAb 970 (antibody, V domains shown)
VH: EVQLVESGGGLVQPGGSLRLSCAASGFTFSSYWMSWVRQAPGKGLEWVANINKDGSEKYYVDSVKGRFTISRDNAKNSLYLQMNSLRAEDTAVYFCARDYRYFDWLLSQIDLEIDYFDYWGQGTLVTVSS
VL: not shown
B10: mAb 1149 (antibody, V domains shown)
VH: QVQLVQSGAEVKKPGASVKVSCKASGYTFASYDINWVRQATGQGPEWMGWMIPNIGNTGYAQKFQGRVTMTRNTSISTAYMELSSLTSEDTAVYYCARVSRLFNDFGLRHEAPVDFWGQGTRVTVSS
VL: QSVLTQPPSVSGAPGQRVTISCTGSSSNIGAGYDVHWYQQLPGTAPKLLIYGYSSRPSGVPDRFSGSKSGTSASLAITGLQAEDEADYYCQSYDSSLSVLFGGGTKLTVLG
B11: mAb 1036 (antibody, V domains shown)
VH: QVQLVQSGAEVKKPGSSVKVSCKASGGTLSSYTISWVRQAPGQGLEWMGRIIPILGIADYAQKFQGRVTITADKSTTTAYMDLSSLGSEDTALYYCASAPKDWSSGFDYYYGMDVWGQGTMVTVSS
VL: DIVMTQTPLSLSVTPGQPASISCKSSQSLLNSDGKTYLYWYLQKAGQPPQLLIYEVSNRFSGVPERFSGSGSGTDFTLKISRVEAEDVGVYYCMQSVQLPPYTFGQGTKLEITR

Biological target: SARS-CoV full length Spike (SARS-CoV, UniProt P59594 14-1190)

| Binder | median fluorescence intensity, fold over isotype control |
| --- | --- |
| B1 | 0.92 fold over isotype |
| B2 | 4.36 fold over isotype |
| B3 | 773 fold over isotype |
| B4 | 1.1 fold over isotype |
| B5 | 0.97 fold over isotype |
| B6 | 0.95 fold over isotype |
| B7 | 0.91 fold over isotype |
| B8 | 0.91 fold over isotype |
| B9 | 547 fold over isotype |
| B10 | 1.05 fold over isotype |
| B11 | 1.05 fold over isotype |

Biological target: T1, MERS full length Spike (MERS-CoV, UniProt K9N5Q8 18-1291)
T1 sequence: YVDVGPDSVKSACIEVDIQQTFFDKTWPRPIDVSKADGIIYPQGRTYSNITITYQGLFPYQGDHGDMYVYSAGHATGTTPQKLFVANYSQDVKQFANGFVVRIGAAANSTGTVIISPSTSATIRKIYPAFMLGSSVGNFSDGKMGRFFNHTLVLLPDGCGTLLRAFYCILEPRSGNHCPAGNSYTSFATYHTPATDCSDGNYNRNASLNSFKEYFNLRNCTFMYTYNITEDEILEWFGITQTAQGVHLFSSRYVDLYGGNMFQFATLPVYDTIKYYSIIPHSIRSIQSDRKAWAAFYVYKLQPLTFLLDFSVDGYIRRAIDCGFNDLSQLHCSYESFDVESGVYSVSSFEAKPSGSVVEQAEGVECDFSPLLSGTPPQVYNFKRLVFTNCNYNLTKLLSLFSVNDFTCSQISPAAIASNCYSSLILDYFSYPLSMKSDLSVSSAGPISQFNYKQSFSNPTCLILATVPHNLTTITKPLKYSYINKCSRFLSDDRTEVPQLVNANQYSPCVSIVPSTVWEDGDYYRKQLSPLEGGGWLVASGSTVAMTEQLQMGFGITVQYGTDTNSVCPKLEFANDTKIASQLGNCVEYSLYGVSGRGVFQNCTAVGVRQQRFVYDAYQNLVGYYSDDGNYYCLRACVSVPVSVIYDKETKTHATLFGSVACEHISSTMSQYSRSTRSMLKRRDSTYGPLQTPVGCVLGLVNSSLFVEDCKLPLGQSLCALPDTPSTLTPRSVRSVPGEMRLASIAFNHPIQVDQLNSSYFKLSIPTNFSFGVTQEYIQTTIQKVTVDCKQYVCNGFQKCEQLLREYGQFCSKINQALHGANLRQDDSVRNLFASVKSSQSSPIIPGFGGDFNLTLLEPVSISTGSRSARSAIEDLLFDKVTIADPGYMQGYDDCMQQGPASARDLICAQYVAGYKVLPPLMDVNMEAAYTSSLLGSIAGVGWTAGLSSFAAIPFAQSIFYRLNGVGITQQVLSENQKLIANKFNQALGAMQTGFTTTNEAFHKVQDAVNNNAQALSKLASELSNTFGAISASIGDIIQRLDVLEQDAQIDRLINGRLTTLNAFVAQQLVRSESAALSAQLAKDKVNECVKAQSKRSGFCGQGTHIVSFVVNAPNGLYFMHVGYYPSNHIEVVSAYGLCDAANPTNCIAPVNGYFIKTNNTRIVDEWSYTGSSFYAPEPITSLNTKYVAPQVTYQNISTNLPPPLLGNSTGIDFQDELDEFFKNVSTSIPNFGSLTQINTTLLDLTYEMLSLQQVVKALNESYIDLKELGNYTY

| Binder | median fluorescence intensity, fold over isotype control |
| --- | --- |
| B1 | 0.93 fold over isotype |
| B2 | 1.06 fold over isotype |
| B3 | 1.08 fold over isotype |
| B4 | 1.06 fold over isotype |
| B5 | 1.02 fold over isotype |
| B6 | 0.92 fold over isotype |
| B7 | 0.89 fold over isotype |
| B8 | 0.85 fold over isotype |
| B9 | 0.87 fold over isotype |
| B10 | 1.04 fold over isotype |
| B11 | 1.07 fold over isotype |

Biological target: T2, HKU1 full length Spike (human coronavirus HKU1, UniProt Q5MQD0 13-1276)
T2 sequence: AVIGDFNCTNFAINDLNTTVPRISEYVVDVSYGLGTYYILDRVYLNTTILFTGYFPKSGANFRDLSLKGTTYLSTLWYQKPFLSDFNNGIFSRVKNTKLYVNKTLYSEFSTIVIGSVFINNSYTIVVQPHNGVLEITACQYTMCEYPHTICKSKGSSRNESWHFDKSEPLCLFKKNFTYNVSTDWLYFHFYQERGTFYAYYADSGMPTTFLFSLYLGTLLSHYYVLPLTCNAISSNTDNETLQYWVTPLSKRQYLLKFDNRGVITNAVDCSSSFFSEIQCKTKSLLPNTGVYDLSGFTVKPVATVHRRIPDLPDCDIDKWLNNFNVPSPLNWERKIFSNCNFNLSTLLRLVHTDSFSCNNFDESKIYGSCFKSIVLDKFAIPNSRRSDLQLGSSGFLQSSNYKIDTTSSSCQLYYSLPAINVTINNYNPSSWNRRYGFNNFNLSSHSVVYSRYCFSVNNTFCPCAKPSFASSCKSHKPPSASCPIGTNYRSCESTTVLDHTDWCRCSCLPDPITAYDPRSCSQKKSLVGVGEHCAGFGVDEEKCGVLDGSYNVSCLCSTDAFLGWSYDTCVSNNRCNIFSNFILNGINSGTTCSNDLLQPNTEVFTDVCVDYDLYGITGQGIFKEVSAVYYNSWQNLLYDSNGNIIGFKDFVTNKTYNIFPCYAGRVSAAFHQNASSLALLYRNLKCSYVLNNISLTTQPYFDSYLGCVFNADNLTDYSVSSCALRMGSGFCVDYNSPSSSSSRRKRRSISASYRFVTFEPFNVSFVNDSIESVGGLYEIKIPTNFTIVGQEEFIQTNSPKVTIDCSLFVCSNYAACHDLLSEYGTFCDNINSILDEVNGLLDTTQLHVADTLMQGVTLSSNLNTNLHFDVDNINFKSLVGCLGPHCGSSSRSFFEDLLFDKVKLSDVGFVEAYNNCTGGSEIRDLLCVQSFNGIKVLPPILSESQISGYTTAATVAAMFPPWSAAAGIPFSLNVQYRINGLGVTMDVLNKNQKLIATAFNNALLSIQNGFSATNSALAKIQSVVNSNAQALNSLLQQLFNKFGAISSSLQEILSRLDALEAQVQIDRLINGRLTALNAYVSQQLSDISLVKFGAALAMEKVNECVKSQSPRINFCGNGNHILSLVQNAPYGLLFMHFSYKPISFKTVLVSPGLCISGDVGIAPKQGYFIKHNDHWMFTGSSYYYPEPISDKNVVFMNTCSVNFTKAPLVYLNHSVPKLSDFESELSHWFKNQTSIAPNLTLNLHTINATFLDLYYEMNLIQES

| Binder | median fluorescence intensity, fold over isotype control |
| --- | --- |
| B1 | 0.83 fold over isotype |
| B2 | 1.43 fold over isotype |
| B3 | 1.42 fold over isotype |
| B4 | 1.18 fold over isotype |
| B5 | 1.07 fold over isotype |
| B6 | 1.02 fold over isotype |
| B7 | 0.93 fold over isotype |
| B8 | 1.04 fold over isotype |
| B9 | 0.88 fold over isotype |
| B10 | 0.83 fold over isotype |
| B11 | 0.94 fold over isotype |
